Patent publication US10801046B2, “Methods and materials for biosynthesizing multifunctional, multivariate molecules via carbon chain modification” (INVISTA NORTH AMERICA S.A.R.L., priority 2016, dated 2020)

tested on: heptanedioyl-ACP; assay: not given; type: cell-based, Escherichia coli; conditions: top 150 hits screened in vivo

Molecule | activity toward heptanedioyl-ACP in vivo
SEQ ID NO: 195: Halobacteriovorax marinus thioesterase (protein, listed as Halobacteriovorax marinus, Halobacteriovorax marinus (strain ATCC BAA-682 / DSM 15412 / SJ), Halobacteriovorax marinus thioesterase) MKSPVFKKKYQVSISNVNINKRLGLFGLLGYLQDIATLHAEIAGFGLDEMISSNSFWVLVRQEIRMNKFPKWNDEIEIQTWSRTPQGMYAFREFEFFLNDEKVGSCSTAWMILSGDTRRIKKPDFPIEKINPRLDSLLDYCAERIKVLDNFELVNEIKVRISDLDLNMHVNNTKYTQWVLDSIPIELHKSAKLRNYQINFLKEAHLGDEIDIYRASSAKDESAHDTQFKGIRRSDQSTIFYVNIIADT | displayed considerable activity toward heptanedioyl-ACP
SEQ ID NO: 85: Ferrimonas balearica thioesterase (protein, Ferrimonas balearica (strain DSM 9799 / CCM 4581 / PAT), Ferrimonas balearica thioesterase) MVRRSLLILMLCLYQPGAWADQPSILILGDSLSASYGMSEAEGWVKKLQQNLPDAQIINASVSGETSGGGLRRLPGLLQQHQPDWVFVELGGNDGLRGFQPTITENNIEQLITLSKASGAQVLLSEVMVPPNYGRRYAERFQQIYHGLAKEHEVELVPFFMTEIATDPNLMQADGIHPNREAQGRIAAFLLPWFEQAIAE | displayed considerable activity toward heptanedioyl-ACP
SEQ ID NO: 86: Marine sediment metagenome thioesterase (protein, Description of Unknown: Marine sediment metagenome, Marine sediment metagenome thioesterase) MTVKALTTRLPAPGPQVRYFSALRSAVLCVFLLAAGFCASTSAESDDGVLLVFGDSLSAAYRMDERDGWVALLQQQLREESTALQVVNGSVSGETTAGGLARLPAMLDAHQPDIVMLELGGNDGLRGLPVTSIRQNLERMIQMSQQAGARVILAGIQIPPNYGPRYTAPFYAQYQELADEYGLVLIPFLLEGIADNPALMQDDGIHPTAAAQPMIVDTVWPVLQGVLTATDRP | displayed considerable activity toward heptanedioyl-ACP
SEQ ID NO: 190: Bacteroides finegoldii CL09T03C10 thioesterase (protein, Bacteroides finegoldii CL09T03C10, Bacteroides finegoldii CL09T03C10 thioesterase) MSESNKIGTYKFVAEPFHVDFNGRLTMGVLGNHLLNCAGFHASDRGFGIASLNEDNYTWVLSRLAIELDEMPYQYEDFSVQTWVENVYRLFTDRNFAIMNKEGKKIGYARSVWAMISLNTRKPADLLALHGGSIVDYICDEPCPIEKPSRIKVTNTQPLATLTAKYSDIDINGHVNSIRYIEHILDLFPIDLYKTKRIRRFEMAYVAESYFGDELTFFCDEANENEFHVEVKKNGSEVVCRSKVIFE | displayed considerable activity toward heptanedioyl-ACP
SEQ ID NO: 193: Pseudomonas fluorescens thioesterase (protein, listed as Pseudomonas fluorescens) MRVWFLSAGLALMCMAQNAAAGTVLIVGDSISAGFGLDTRLGWVSLLEQRLEQEGFDDKVVNASISGDTSAGGQARLPALLAEHKPDLVILELGGNDGLRGMPPTQLQQNLAAMIDSSRQSGAKVLLLGMQLPPNYGKRYTDAFAEVYGKLADDKKIPLVPFFLDGVGGHPDLMQADGLHPAAGAQGKLLENVWPTLKPLL | displayed considerable activity toward heptanedioyl-ACP
SEQ ID NO: 194: Pseudomonas stutzeri (strain A1501) thioesterase (protein, Pseudomonas stutzeri (strain A1501), Pseudomonas stutzeri (strain A1501) thioesterase) MRRWLKCGALALLCWTQGALAGTVLVVGDSISAAFGLETSQGWVHLLQERLVEGDESWRVVNASISGDTTAGGLARLDPLLEEHTPEVVILELGGNDGLRGQSPVQLKQNLADMIDRSREAGAEVLLLGMRMPPNLGQRYTRAFADAFDSLAQEKSVAYVPFLLEGVGGVAGMMQADGIHPTAEAQSQLLETVWPALEPLL | displayed considerable activity toward heptanedioyl-ACP
SEQ ID NO: 82: Vibrio shilonii AK1 thioesterase (protein, Vibrio shilonii AK1, Vibrio shilonii AK1 thioesterase) MIRQLSYFVLIVISLASFHAKAATLLILGDSLSAGYNMRAEQSWPTMLSDELSSGDEPMKVINGSVSGDTTSNGLAKLPGLLKQHSPDYVLIELGANDGLRGFQPSIIKNNLASLIEMSQQAGSKVLLMQIRIPPNYGKRYASMFEGIYPALAQESGVPLLPFFLEQVIIKPEWMMEDGLHPKPEAQPFIAQFVAESMQPHL | displayed considerable activity toward heptanedioyl-ACP
SEQ ID NO: 73: Thalassospira xiamenensis M-5 thioesterase (protein, Thalassospira xiamenensis M-5 = DSM 17429, Thalassospira xiamenensis M-5 thioesterase) MTIQWDEIAKPALPANCGWRGTYRVRYSEIGDNGLAMLPALADYMQDAAGWGARILKLAYDDTVDKGMAWVLARMVIHVRRYPGNGEDIIVETWPSGVARRVATRDFRLIDSSGDVIAVAQSFWVMFDLLERRAASWPDWIEERLPKPPGPKLIEPPFRPPFTTDPLPEIDSIKARPSDLDLYGHVNNVRLMQWVLGATGADSKPDFHPESIDIQFRTECRVQERVTVRQKDGFAAITRDGDGVDLVRAHVVPKNRTALA | displayed considerable activity toward heptanedioyl-ACP
SEQ ID NO: 189: Sedimenticola thiotaurini thioesterase (protein, listed as Sedimenticola thiotaurini) MKKLFLLLIFAMSNVPAAEPVILVLGDSLSAAYGIERSRGWVSLLQSRLQQAGYPHRVVNASISGDTTAGGLARLPRALEQFQPDILIIELGGNDGLRGLGNRQTRDHLDQMITLARASHSRPLLLGMMLPPNFGKAFTEKFLQIYRDLAEQRNVPLVPFFLAGVADRPEWMQSDGIHPTAEGQPLMLEHVWEQLQPMLEETSVHSDKSLK | displayed considerable activity toward heptanedioyl-ACP
SEQ ID NO: 192: Vibrio mytili thioesterase (protein, listed as Vibrio mytili) MIRLLSLFLFFSLSTLAHANEKLLVLGDSLSAGYQMPIEKSWPSLLSNALLEHDQDVTVINGSISGDTTGNGLARLPQLLDQHTPDFVILELGANDGLRGFPPKLITANLSKMITMIKNSGAKVFMMQIRVPPNYGKRYSDMFYDIYPKLAEHQQVTLLPFFLEHVVTKPEWMMDDGLHPKPEAQPWIAEFVAQELIKHL | displayed considerable activity toward heptanedioyl-ACP
SEQ ID NO: 191: Pseudoalteromonas sp. SW0106-04 thioesterase (protein, Pseudoalteromonas sp. SW0106-04, Pseudoalteromonas sp; SW0106-04 thioesterase) MSASILRVFIVLLLVTKPLFAWADNQILVLGDSLSAAYGLKQHQGWVQLLQDTYEQQNTPTTLINASISGETTGGALRRLDAILKEHTPTHVLIELGGNDGLRGFPVTKMKANLHALIDKSREAGAEVALMQIRIPPNYGRRYTELFEQSFVDVAKEKQVTLMPFFVEQVATNGELMQNDNIHPNAEAQPILRDIMKTQISNWLTK | displayed considerable activity toward heptanedioyl-ACP

tested on: heptanedioyl-ACP methyl ester; assay: not given; type: cell-based, Escherichia coli; conditions: 146 thioesterases screened

Molecule | impact on monomethyl heptanedioate production
SEQ ID NO: 73: Thalassospira xiamenensis M-5 thioesterase (protein, Thalassospira xiamenensis M-5 = DSM 17429, Thalassospira xiamenensis M-5 thioesterase) MTIQWDEIAKPALPANCGWRGTYRVRYSEIGDNGLAMLPALADYMQDAAGWGARILKLAYDDTVDKGMAWVLARMVIHVRRYPGNGEDIIVETWPSGVARRVATRDFRLIDSSGDVIAVAQSFWVMFDLLERRAASWPDWIEERLPKPPGPKLIEPPFRPPFTTDPLPEIDSIKARPSDLDLYGHVNNVRLMQWVLGATGADSKPDFHPESIDIQFRTECRVQERVTVRQKDGFAAITRDGDGVDLVRAHVVPKNRTALA | promising

same assay, conditions: top 150 hits screened in vivo

Molecule | activity toward heptanedioyl-ACP methyl ester in vivo
SEQ ID NO: 73: Thalassospira xiamenensis M-5 thioesterase (protein, Thalassospira xiamenensis M-5 = DSM 17429, Thalassospira xiamenensis M-5 thioesterase) MTIQWDEIAKPALPANCGWRGTYRVRYSEIGDNGLAMLPALADYMQDAAGWGARILKLAYDDTVDKGMAWVLARMVIHVRRYPGNGEDIIVETWPSGVARRVATRDFRLIDSSGDVIAVAQSFWVMFDLLERRAASWPDWIEERLPKPPGPKLIEPPFRPPFTTDPLPEIDSIKARPSDLDLYGHVNNVRLMQWVLGATGADSKPDFHPESIDIQFRTECRVQERVTVRQKDGFAAITRDGDGVDLVRAHVVPKNRTALA | showed activity toward heptanedioyl-ACP methyl ester

tested on: not listed separately; assay: In vivo carboxylate reductase screening, substrate consumption by LC-MS, heptanedioate; type: cell-based, Escherichia coli; conditions: 541 enzymes screened in vivo
Description: To screen carboxylate reductases in vivo, […] T7- pUC expression vectors was co-transformed into T7 Express lysY/Iq with the phosphopantetheinyl transferase sfp from Bacillus subtilis on a T7-pCDF expression vector. Biological duplicates of the resulting strains were incubated in 0.5 mL of terrific broth containing either 1 g/L heptanedioate or 1 g/L monomethyl heptanedioate and supplemented with 0.4 mM IPTG in 96-well deep well plates. The plates were incubated for 30 h at 30° C. in a shaking incubator. The cells were then pelleted, and culture supernatants from the same strains in media containing either heptanedioate or monomethyl heptanedioate were combined. The combined supernatants were analyzed by LC-MS to determine the concentration of heptanedioate and monomethyl heptanedioate. Carboxylate reductase activity on heptanedioate or monomethyl heptanedioate was reflected by consumption of the respective substrate in the medium.

Molecule | substrate preference, heptanedioic acid to 7-oxoheptanoate
SEQ ID NO: 205: Kuraishia capsulata CBS 1993 carboxylate reductase (protein, Kuraishia capsulata CBS 1993, Kuraishia capsulata CBS 1993 carboxylate reductase) MPSLPLPPYRAVFERAEDITRDALPFPPERNQRGIAVPGSVEPGYSAIYRSAATPDFLYDRVSPELDTYYRILKRSFEIFKDEDCVSERPQTGENSWSDKFVPRSYGEVYHDSLNFGSGLKYLLQKNEFRSGTEIPDKDYIVSIFSRNRAKWLVADISCTLFSLPNTALYDTLGPDTSTYILGLTKSPVVVAASDKISKLLDLKEADPAKLKNLIMLVAMDNLEPEVYSDLSRRAYKLNVKLYEWDQVTEAGILFPHEEVPPAPDSIYSLSFTSGTTGPPKGAILLHSGVAAGVAFTSATIDTPKQKAKLLSILPLAHIYERMTMALQLFRGGCLGFPHQPGPEHIVPNLRLFKPNLFSGVPRLFNKFEGVLKAATVHNPNASPAKRALAKRIIEWKMKQQCSKDGERGESILYDKLLNNKLRAALGFDNLYGVVTGSAPISAETIKFLKAALGVSFHQGYGLTETFAGVCVSAGLETDPGSCGVIGIATECRLKDTPELGYTSSDEGGPRGELLLRGSQVFPGYYKNEEETKKALDEDGWYHTGDIARIDSKCRIYVIDRVKNLFKLSQGEYVAPERIENIYLSSCTDFVSQIYVHGDSFSNYLVGIVGVDILGLSAFLKRKHPDLWRQVEGKTPEEILDIISSSRQLKSAILAQMNRNVSSAGLNGYEKLHNLKIGIEPLKVEDEVLTPTLKLKRNNALTKFNTDLKNLYEEGSLIKNEKL | preferred acting upon heptanedioic acid to form 7-oxoheptanoate
